The DeepSol protein solubility set

Test: soluble on expression in E. coli; label from the status in PepcDB or PDB records

| Sequence | soluble on expression in E. coli |
| --- | --- |
| MRNVLKAETLERKFPLLSVENGCIVSKDADLTVAFEVELPELYTVTAEEYEAMHSTWIKAARVLPEHSIVCKQDWFTKESYRPQNGGEEQSFLSRSYERHFNERPYLNHRCFLYLTKTTRERNRRQSDFSTLCRGFLLPREITDKDMAARFLEAVEQFEHIVNDSGHIRLRRLETEEITGTRERPGLVEKYLSLSMEDETAVLQDICLKPGRMRIGDKRLCLHTLSDTEDLPGKLSTDMRYERMSTDRSDCRLSFAAPVGLLLSCNHIYSQYVFIDNAQKILQMMEKNSRNMLSLSQYSRSNAVNQEWTEMYLDEAHTKGVLPVRCHCNVIAWAEDAEEFRRIRNDTGSQLAMMECTPRYNTVDTPVLYWAGIPGNAGDFPAEESFYTFLEQAVCLFAGETNYRSSPSPFGIRMADRQNGIPVHVDISDLPMKRGIITNRNKFILGPSGSGKSFFTNHLVRNYYEQGAHILLVDTGNSYQGLCRMIHERTRGGDGIYITYEEDNPISFNPFYTDSGQFDVEKRESIKTLILTLWKREDEAPKRSEEVALSGAVNAYIRKITENREARPDFNGFYEFVDGDYRRMIAEKKVREKDFDIDGFLNVLEPFYKGGDYDFLLNSDRELDLTNRRFIVFELDNISGNKVLLPVVTLIIMETFIAKMRRLKGIRKVILIEECWKALMSANMSGYIQYLFKTVRKYFGEAVVVTQEVDDIISSPIVKEAIINNSDCKILLDQRKYMNKFEHIQRLLGLTEKEKSQILSINQANHPGRFYREVWIGLGGTRSAVYATEVSAEEYFTFTTEESEKLEVQRLAEELDGNLELAIRRMAERKREEQRQVSIPKREQ | not soluble |
| MSLKQADELRFNEDGLIPAIVQDAASKEVLTLAYMNKESYEKTLETKETWFYSRSRQALWHKGETSGNTQAVKGIRYDCDQDALLVLVEPSGPACHTGSYSCFTKEQTEEQAADRFGIMNELERVIAERQAEMPEGAYTTYLFREGVDKILKKVGEEASEVIIAAKNRDHEELKWEAADLLYHLLVLLREQSLPLDDVLDVLKKRHSEIEEEGHHHHHH | soluble |
| GSDPGPEAARLRFRCFHYEEATGPQEALAQLRELCRQWLRPEVRSKEQMLELLVLEQFLGALPPEIQARVQGQRPGSPEEAAALVDGLRREPGG | soluble |
| MGSDKIHHHHHHMSDANVSRLGQANLSGDAKALFLKVFSGEVLTAFQESCVTADKHLVRTITSGKSAQFPILGKISAQYHTPGAEIAGLSVPANEQIITIDDLLISHAFIASIDEAMNHYDVRGPYSTEMGRALSYTYDKHILQLGVLAARASAPVSTEAGGGSVTDSALLTDTTGEALVAALFAAAQKLDEKFIPADERYAYLTPAAYYMLAQNTKLMNSLWGGQGSYAKGELPQVAGISLVKAVHAPFGSNIATVANGGTALTAGTSDKYAVDATSTAALVMHKAAVGTVKLMDLAMESDYDIRRQGTLMVAKYAMGHGILRPAAAVELKTA | not soluble |
| MLLALKGIRKVYRMGEVAFSALKGVDLEVEEGEMLAIMGPSGSGKSTLLHILGLLDRPTEGEYVLMDRPTSRLAEDERAFLRNRFLGFVFQAFFLLPRLSALENVEVPLAYAGVPPGTRRRRALELLERVGLLEKANNLPNQLSGGQRQRVAIARALALNPPLLLADEPTGALDTRTGEEILALFQELNREGTTVILVTHEPHVAEKTNRIVRVLDGEIVADERRHHG | soluble |
| MSLSMLAVAATALATFAIAPAQAQAEKPKDKVTLMLNWYLYSEHATFFLGKEKGFYAEEGIDLGIQEGRGSAVTAQAVAAKSATFGYIDVTTMIKAAAKGAPLKSTGVLFQVSPMSVMGLSEKNIATPKDIIGKTVAVTPGDSMSQMWPLFLKVNDIRPDQVKVVSGDGQTKLNAVANGQADLLLGYVMDQAIKLQDATGKPVTPIRFADSGVNQISSGIITHKNLLTENPDLVKRFMRASTKAAEAAEKSPEAAVDAMLKAHPKAGVRDTLIVGMKQSVALYHTQETANQRPFRVAMKNVNDSLDLLEGHHHHHH | not soluble |
| MGSDKIHHHHHHFACKEETDLYFNGDITVIKSFDNDTLLSPVKVELEDIYDGSVLAYDSLLFFTSHKYSDCWMYVFSVNSGKHIASLCPKGQGPNDYLSCKNSQQFIRENGELKLWVRDNAKSARLLNITKSIETGATVCDAIIPMDWNKYFVYPATTLFFLKDGYILGQNQCEEQYSKGKEYIPRKFYLYKDSLGNKVKEYKLFNRPVILKDDKYDVLSGMFYANHSYIHPDQTKVAIAMQRVAQITILDVKSGKQVGYRMDDTLDFSDIEQNLECIRYYYTSAAVNSRYIFALYIDQAEMGGKYPFKSKTVHVFNWEGRPVYKIQLDKEISWITLDPQNNRLYAQGEDDSIWAYDVSWLSK | not soluble |
| MKGPYKHFMQKEIFEQPDSAFNTMRGRIDFENCVVTLGGLKSWLSTIRRCRRIIMIACGTSYHSCLATRSIFEELTEIPVSVELASDFLDRRSPVFRDDTCVFVSQSGETADSILALQYCLERGALTVGIVNSVGSSMSRQTHCGVHINAGPEIGVASTKAYTSQYIALVMFALSLSNDSISRKGRHEEIIKGLQKIPEQIKQVLKLENKIKDLCNSSLNDQKSLLLLGRGYQFATALEGALKIKEISYMHSEGVLAGELKHGILALVDEDLPIIAFATRDSLFPKVMSAIEQVTARDGRPIVICNEGDAIISNDKVHTTLEVPETVDCLQGLLNVIPLQLISYWLAVNRGIDVDFPRNLAKSVTVE | soluble |
| MKIAIAGAGAMGSRFGLMLKQGGNDVLLIDGWQEHINAIKENGLKANYNGEEITVKVSIVNQNEVPTGEQFDLIILFTKAMQLEKMLQDVKPLIADHTEVLCLLNGIGHEDVIEKFVPMEKIFIGNTMWTAGLEGPGKAKLFGSGSVELQNLGIGQEESAKKLAETLSASGLNAKYSDNIHYSIYRKACVNGTMNGLCTILDVNMAGLGATKPAHDMVVTIVNEFAAVAAKENVNLDIPEVIEHVETCFDPTTIGMHFPSMHQDLIKNNRLTEIDYINGAISRKGKKYGVVTPYCDFLTQLVHSKEEILGAK | not soluble |
| MSPSSATPARCSIARTLELLGDKWTLLIVRDAFWGHSRFSEFTRSLGVASDVLTARLAMLVDEGILERRAYRQEGSRERLEYVLTEKGKQLHVVIGALGQFGRDHLPRPGSTSPEYSDETTGEAVSLAFVTDDGRRVSASTLHVQQGTPAPAADPQG | not soluble |
| MSKKDVTKVVLDESDIPKQWYNILADMPNKPAPYFSSKTGKPVTLDELQAIFPMELIQQENSQERWIDIPEEVREMYRQWRPSPLYRARALEKHLGTPARIYYKYEGTNATGSHKLNTSLPQAYYNKIAGIKRLSTETGAGQWGSALSLACNHFGLECTVYMVKVSYEQKPYRRSFMKTFGAQVYASPTNLTSSGRAILEKDPDCTGSLGIAISEAVEDAATHDDTNYALGSVLNHVCLHQTIIGLEAKKQLEYLDEYPDVVFACCGGGSNFAGIAFPFLMDKFKGTKVRAVAVEPTACPTLTKGVYAYDYSDTGKIGPLAKMYTVGHDFVPAGIHAGGLRYHGVSPIVSQLYEDKLIEAKAYGQSSVFEAAVIFARTEGIVPAPESSHAIRAAIDEALLCKESGEAKVILFNLSGHGYFDMAAYDNYFSGKLSDVDYSEEEIARSMKNLPKVD | soluble |
| MFSPLECRLAVACKFQDDRYYKLFHQYFDLLAQVHSVVETMDGLWMLRVWRAQKFGPESIKERRERQLFHVTQFSFKRYIVPPNPRIGKAIEEFGKEYLIEINVYDEHRADLVSLNSGNFVAIQNVHAASTPHREIQILHGGGEAYQRGISTVPVDFEVDAFQNFKRKVESVLENVLYDENFIEFQQPEEVTENRVPEEPQLNIHKDPLPSDLPQ | soluble |
| RAIPIKQSFLLKRSGNSLNKEWKKKYVTLSSNGFLLYHPSINDYIHSTHGKEMDLLRTTVKVPGKRPPRAISAFGPSASGSAGQAEEENFEFLIVSSTGQTWHFEAASFEERDAWVQAIESQILASLQ | soluble |
| MGSDKIHHHHHHSCVNDLDTVPLDKDELVSDVVFGNEPLAYEQSLAKIYAGMAIGGNSGGDSDQDVVGIDGGSQASFLRVLWNMQDLPSDIAHCAWNDPGIPEFNHISWGASSPWIKGSYYRLFYQINVANAYLRETAEDKLDARGCDASLKASIKTWRAEARFLRALSYEYALDLYRNVPFVDENSPIGSIPPKQIMAADLFNWIEKELTECVEDMLEPTVGYSQDYGHANKAAAWALLSRLYLNAETYVGQNKYTECITYAKKVIETGYQLEPVYVDMFKADNHLSNEMIFPVRYEGDQTMTWGGMTAFLCWGATATQEEVNAKGAWQGVRAKSSLYNLFLKESGSDADTRKAMLRTDLTTSLEIIDENTFQNNGIPVTKYFNVNKDGTLPPSKEAYVDFPLFRLGEIYLTYAEAVLRGGQGGDRATALRYVNDLRKRAYSDKTLAPISDSDLTLNFIIDERGREFFFEGQRRTDLVRFGLFTTAGYVWPWKGGTAKGKAVENFYNVFPIPSDDIGSNTNLKQNEGY | not soluble |
| MSLNVIDLFSGVGGLSLGAARAGFDVKMAVEIDQHAINTHAINFPRSLHVQEDVSLLNAEIIKGFFKNDMPIDGIIGGPPCQGFSSIGKGNPDDSRNQLYMHFYRLVSELQPLFFLAENVPGIMQEKYSGIRNKAFNLVSGDYDILDPIKVKASDYGAPTIRTRYFFIGVKKSLKLDISDEVFMPKMIDPVTVKDALYGLPDIIDANWQSDSESWRTIKKDRKGGFYEKLWGQIPRNVGDTESIAKLKNNIISGCTGTLHSKIVQERYASLSFGETDKISRSTRLDPNGFCPTLRAGTARDKGSFQAVRPIHPYHPRVITPREAARLQGFPDWFRFHVTKWHSFRQIGNSVSPIVAEYILKGLYNLLNKRVQPEYLNHNSLEVREGHHHHHH | soluble |
| MGEQSHEKDHDEAHSYNPFVRSAVEYDADTRLQMAENAASARKLFVSSALKDIIVNPENFYHDFQQSAQMAEDANQRRQVSYNTKREAHIHQLKAQGLPLPSNIPMIEINPTRVTLNMEFESQYYSLMTSDNGDHENVASIMAETNTLIQLPDRSVGGTTPDPFAQQVTITGYFGDVDRARMLMRRNCHFTVFMALSKMKMPLHELQAHVRQNPIQNVEMSFVDAPEKNGIVTTYLRITAREKNQHELIEAAKRLNEILFRESPAPENNFTLHFTLSTYYVDQVLGSSSTAQLMPVIERETTTIISYPCYNNRNETRGNIYEIKVVGNIDNVLKARRYIMDLLPISMCFNIKNTDMAEPSRVSDRNIHMIIDESGIILKMTPSVYEPADLLSGEVPLNCASLRSKEFNIKKLYTAYQKVLSKKFDFIAPQPNDYDNSIWHHSLPANFLKNFNMPCRGELSDGSNGRRHRSSSIASSRSKHSYMSKGKQFSESSGGPSRSHTRVSSFSENSSTVPIMQFPTPHFAPPMLTPHHHMLKYVYLQQHQQAQTFLKGAAGLHPGTHIMFPPPIIVDGSFVSALPFADPVVFDGFPYVHGLFPVNEAEQHRNHRESSPSLRSTQEIRKPSRNMGNRPSSSTGSYYPSTTPRQRVYEQVREDDLRSHIGSRRTSVNGDDQNVESMHDQGYERQYPRQHQRLQKDDQQRWKTGSRGDIHSSRTINVHRDVRNSNEYDFHVGNSGPAKRSPSLEQVQLQMTHHLKLKSNDVDLDHEKLYMHESPHNDSDTTVSASGFGNDLMDGDFVQRFLSNANINESGRRPRTVSCFTEKDGQSARYIDSDGAYSVVDHASTHQSRSYDSFRKVGDNGVTKTILEPRARVEKDYGKISLEHKTKYSNEYGDEEKSAENDTSSLGSRQYRIDPMKRNIYILRNRDFSNSFFYFLHQFSLYMNPICAYRIRLHQFLSYKPSICLSRISLYPRDLYD | not soluble |
| MSLRLIATEEAVTFQPVVDALRAHSRTDDASLDMILVRDVYGDEPARPAMIGRLSDVTGERLAEMDSNGVDMHLLSLTAPGVQMFDAETGTRLARIANDLMAQTVAANPTRFAGLGTFAPQDPASAAREIERVATQLRLNGLVINSHTNDLYYDDPFFHPVFEAIEASGLALYIHPRAPSKQIDRAFRDYGMNSAIWGYGIETSTNAVRMILSGLFDRFPRLKIVLGHMGEAIPFWLWRLDYMHGNATTFGGAPKLKLKPSEYFRRNFAITTSGVESHAALRYSIEVLGPENVMWAIDYPYQPMAPAVQFIRTAPIPEDVKAMVAGGNAARIFRITEGHHHHHH | soluble |
